Experimental data taken from article PMC3277711 (Cell, 2012).

B1: chicken CENP-S-X complex (full-length CENP-S with CENP-X) (complex)
chain 1: MEAAGGEQRELLIQRLRAAVHYTTGCLCQDVAEDKGVLFSKQTVAAISEITFRQCENFARDLEMFARHAKRSTITSEDVKLLARRSNSLLKYITQKSDELASSNMEQKEKKKKKSSAAKGRKTEENETPVTESEDSNMA
chain 2: MEEREGGFRKETVERLLRLHFRDGRTRVNGDALLLMAELLKVFVREAAARAARQAQAEDLEKVDIEHVEKVLPQLLLDFVV
B2: chicken CENP-SΔC-X complex (complex)
chain 1: MEAAGGEQRELLIQRLRAAVHYTTGCLCQDVAEDKGVLFSKQTVAAISEITFRQCENFARDLEMFARHAKRSTITSEDVKLLARRSNSLLKYITQKSDELASSNME
chain 2: B1 chain 2

What was measured:
SEC = target: the molecule itself; test: SEC
[1] = target: chicken CENP-T-W complex (CENP-T histone fold with CENP-W) (chicken) (UniProt F1NPG5); test: SEC
crystal structure = target: the molecule itself; test: crystal structure

Binder	stoichiometry N (SEC)	stoichiometry N (CENP-S-X dimer per CENP-T-W dimer) [1]	stoichiometry N (crystal structure)
B1	2 CENP-S-X heterodimers in the oligomer	1	–
B2	–	–	2 CENP-S-X heterodimers in the oligomer
